Paper PMC5573408 (2017)
No end group written: not given here. fluorescein = fluorescein, fluorescent label at the C-terminus

Key:
Cannabinoid receptor 2 [1] = biological target: T1, Cannabinoid receptor 2 (Homo sapiens, UniProt P34972); experiment: fluorescence saturation binding on CHO-K1-hCB2 cells
Cannabinoid receptor 2 [2] = biological target: T1, Cannabinoid receptor 2; experiment: fluorescent pepcan-F4 displacement on CHO-K1-hCB2 cells
Cannabinoid receptor 2 [3] = biological target: T1, Cannabinoid receptor 2; experiment: radioligand binding [3H]CP55,940, ternary complex allosteric model
Cannabinoid receptor 2 [4] = biological target: T1, Cannabinoid receptor 2; experiment: radioligand binding [3H]WIN55,212-2, ternary complex allosteric model

T1 sequence (P34972 whole entry): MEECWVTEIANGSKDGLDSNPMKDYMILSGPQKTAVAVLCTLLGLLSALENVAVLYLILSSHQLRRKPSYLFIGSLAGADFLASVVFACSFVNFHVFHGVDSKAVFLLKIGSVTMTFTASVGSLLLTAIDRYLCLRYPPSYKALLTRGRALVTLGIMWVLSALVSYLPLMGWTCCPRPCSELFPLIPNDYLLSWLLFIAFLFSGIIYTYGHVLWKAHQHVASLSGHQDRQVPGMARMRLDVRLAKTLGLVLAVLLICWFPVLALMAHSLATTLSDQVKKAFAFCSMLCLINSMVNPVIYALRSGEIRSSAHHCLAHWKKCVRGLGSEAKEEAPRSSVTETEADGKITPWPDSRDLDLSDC

B1: Pepcan-F4 (peptide)
chain: RVDPVNFKLLSH-fluorescein
B1 gave a Kd (Cannabinoid receptor 2 [1]) of 122 nM.

B2: Pepcan-12 (RVD-hemopressin) (peptide)
chain: RVDPVNFKLLSH
B2 showed a Ki (Cannabinoid receptor 2 [2]) of 44 nM.

B3: Pepcan-12 (RVD-hemopressin) (peptide)
chain: RVDPVNFKLLSH
modifications: [3H]CP55,940 present
For B3, the Kd (Cannabinoid receptor 2 [3]) was 58 nM.

B4: Pepcan-12 (RVD-hemopressin) (peptide)
chain: RVDPVNFKLLSH
modifications: [3H]WIN55,212-2 present
In the case of B4, the Kd (Cannabinoid receptor 2 [4]) is reported as 53 nM.
